Laboratory results reported in CN111848803A.

Columns and labels:
[1] = target: GPC3ΔGPI-FLAG重组蛋白 (Homo sapiens (Human)) (UniProt P51654); experiment: ELISA on coated GPC3ΔGPI-FLAG after 2 h treatment of the antibody at pH 2
[2] = target: GPC3ΔGPI-FLAG重组蛋白 (Homo sapiens (Human)) (UniProt P51654); experiment: ELISA on coated GPC3ΔGPI-FLAG after 2 h treatment of the antibody at pH 10
[3] = target: mCherry-GPC3 (on stably expressing HEK293T cells) (UniProt P51654); experiment: immunofluorescence colocalisation on HEK293T cells expressing mCherry-GPC3

Molecule	抗原结合能力下降 (A450 against pH 7), antibody treated at pH 2 [1]	抗原结合能力下降 (A450 against pH 7), antibody treated at pH 10 [2]	皮尔森相关系数 (Pearson correlation of mCherry and Alexa Fluor 488 signals) [3]
HN3-hFc融合抗体 (Fc fusion)	47.9%	28.2%	–
纳米抗体G10 (G10-His, GPC3 nanobody) (VHH, not shown: small tags and cut ends) VHH: QVQLVESGGALVQPGGSLRLSCAASGMTGIFWRLRWYRQAPGKEREWVCGISQLPTPASYEDSVKGRFTCSRDDARNTVYLQLNSLKPEDTAVYYCAAANVLPGLPAELPIYWGQGTQVTVSS	26.1%	14.4%	0.94
